Data: the supplement of paper PMC7877785
± gives the uncertainty stated by the source.

Experiment: self-splicing fitness, log relative to wild type (ln ratio); higher = more splicing; Tetrahymena group I intron in knt gene, E. coli kanamycin selection, DiMSum; sequences stand for … in CUCUCU…GGAGGGAAAAGUUAUCAGGCAUGCACCUGGUAGCUAGUCUUUAAACCAAUAGAUUGCAUCGGUUUAAAAGGCAAGACCGUCAAAUUGCGGGAAAGGGGUCAACAGCCGUUCAGUACCAAGUCUCAGGGGAAACUUUGAGAUGGCCUUGCAAAGGGUAUGGUAAUAAGCUGACGGACAUGGUCCUAACCACGCAGCCAAGUCCUAAGUCAACAGAUCUUCUGUUGAUAUGGAUGCAGUUCACAGACUAAAUGUCGGUCGGGGAAGAUGUAUUCUUCUCAUAAGAUAUAGUCGGACCUCUCCUUAAUGGGAGCUAGCGGAUGAAGUGAUGCAACACUGGAGCCGCUGGGAACUAAUUUGUAUGCGAAAGUAUAUUGAUUAGUUUUGGAGUACUCGUGGUCG
Summary of the method: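 The eight P1ex-region nucleotides of an intron in the knt kanamycin-resistance gene on pET-22b(+) were all randomised and the library put into E. coli BL21(DE3). Six replicate transformations were grown overnight at 37°C or 30°C on LB agar with or without 25 μg/mL kanamycin, together with 100 μg/mL carbenicillin, 50 μM IPTG and 0.2% rhamnose. Colonies were pooled and amplicon-sequenced on an Illumina HiSeq 2500. Fitness from DiMSum is the error-weighted combination of wild-type-normalised replicate fold changes, kanamycin over none.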

Sequence | self-splicing fitness (ln) (30 °C) | self-splicing fitness (ln) (37 °C)
UUGCAGCAAUAUUACGACGU | -3.09 ± 0.29 | -1.11 ± 0.14
GAUCAGCAAUAUUACGUGAA | -0.745 ± 0.062 | -0.0764 ± 0.076
CGGUAGCAAUAUUACGCACC | – | -0.162 ± 0.39
GACAAGCAAUAUUACGCGAA | -2.8 ± 0.16 | -1.88 ± 0.14
AAGUAGCAAUAUUACGCGUA | -2.15 ± 0.13 | -1.29 ± 0.14
UAUCAGCAAUAUUACGCUGC | -2.59 ± 0.35 | -0.822 ± 0.24
GCUUAGCAAUAUUACGCUCU | -0.864 ± 0.12 | -0.504 ± 0.12
GGAUAGCAAUAUUACGAAAG | -2.79 ± 0.48 | –
UACAAGCAAUAUUACGCCCU | -0.317 ± 0.085 | -0.111 ± 0.12
CGCAAGCAAUAUUACGUGUU | -3.48 ± 0.11 | -2.9 ± 0.14
UCACAGCAAUAUUACGCCAG | -1.6 ± 0.15 | -0.668 ± 0.25
GACGAGCAAUAUUACGCACA | -2.32 ± 0.15 | -0.917 ± 0.14
ACUCAGCAAUAUUACGUAAU | -0.934 ± 0.057 | -0.31 ± 0.076
GUGGAGCAAUAUUACGGUUU | -3.22 ± 0.14 | -1.65 ± 0.15
UCUCAGCAAUAUUACGAAUC | -3.99 ± 0.39 | -2.58 ± 0.22
AGUUAGCAAUAUUACGAGAG | -3.75 ± 0.29 | -2.24 ± 0.22
UUAGAGCAAUAUUACGACAG | -0.55 ± 0.082 | -0.391 ± 0.1
GGAAAGCAAUAUUACGUGCA | -0.965 ± 0.075 | 0.36 ± 0.099
CGUUAGCAAUAUUACGGAUC | -2.18 ± 0.12 | -1.13 ± 0.19
GCCUAGCAAUAUUACGGAAA | -0.507 ± 0.27 | -0.985 ± 0.26
GGGUAGCAAUAUUACGUGUC | -2.16 ± 0.18 | -0.684 ± 0.15
AACAAGCAAUAUUACGAUUG | -4.48 ± 0.21 | -1.54 ± 0.13
CCUCAGCAAUAUUACGGUAA | -3.97 ± 0.25 | -2.47 ± 0.18
ACAAAGCAAUAUUACGGGGC | -3.69 ± 0.23 | -3.28 ± 0.27
GAACAGCAAUAUUACGCUUC | -4.44 ± 0.19 | -3.19 ± 0.2
CAUCAGCAAUAUUACGAAUA | -1.48 ± 0.23 | -0.645 ± 0.17

Sequence | self-splicing fitness (ln) (30 °C) | self-splicing fitness (ln) (37 °C)
AAUUAGCAAUAUUACGCAUC | -2.79 ± 0.24 | -1.15 ± 0.2
CGCCAGCAAUAUUACGAGCU | -3.06 ± 0.097 | -1.59 ± 0.094
UCAUAGCAAUAUUACGAUCA | -1.3 ± 0.13 | -0.941 ± 0.16
GAAAAGCAAUAUUACGGUCU | -0.737 ± 0.057 | -0.398 ± 0.072
AACCAGCAAUAUUACGACCA | -0.702 ± 0.082 | 0.122 ± 0.11
GGUAAGCAAUAUUACGAGGA | – | -1.84 ± 0.45
GCUUAGCAAUAUUACGGUCC | -0.86 ± 0.17 | 0.242 ± 0.25
CCUGAGCAAUAUUACGGCUA | -1.85 ± 0.33 | –
GUGAAGCAAUAUUACGAUAA | -0.524 ± 0.15 | 0.6 ± 0.15
AGGUAGCAAUAUUACGUCAU | -2.147 ± 0.016 | -1.03 ± 0.034
GGAUAGCAAUAUUACGUGAG | -1.33 ± 0.11 | 0.321 ± 0.1
GUUUAGCAAUAUUACGCUCA | 0.0718 ± 0.14 | 0.432 ± 0.2
GAAUAGCAAUAUUACGUCGU | -2 ± 0.12 | -1.35 ± 0.14
CUGCAGCAAUAUUACGUCUA | -1.64 ± 0.12 | -0.709 ± 0.15
CGUUAGCAAUAUUACGUAGU | -4.27 ± 0.25 | -2.85 ± 0.23
CACGAGCAAUAUUACGCUUU | -3.71 ± 0.22 | -2.89 ± 0.2
UCAAAGCAAUAUUACGGAUU | -3.73 ± 0.24 | -2.26 ± 0.21
GAUUAGCAAUAUUACGGAUG | -2.07 ± 0.16 | -0.375 ± 0.15
UGACAGCAAUAUUACGUUGU | -3.48 ± 0.15 | -2.58 ± 0.2
AAACAGCAAUAUUACGUUGU | -4.04 ± 0.1 | -2.73 ± 0.1
CACGAGCAAUAUUACGUAUU | -4.05 ± 0.17 | -2.48 ± 0.13
CUUCAGCAAUAUUACGAAAA | -2.29 ± 0.2 | -3.03 ± 0.35
CUAGAGCAAUAUUACGCUAG | -3.78 ± 0.34 | -2.49 ± 0.28
AGAGAGCAAUAUUACGGACC | -2.79 ± 0.3 | -1.05 ± 0.33
CGGCAGCAAUAUUACGCCGU | -3.6 ± 0.29 | -2.29 ± 0.19
GCCGAGCAAUAUUACGAUAC | – | -1.59 ± 0.35

Sequence | self-splicing fitness (ln) (30 °C) | self-splicing fitness (ln) (37 °C)
AGACAGCAAUAUUACGUCAU | -2.86 ± 0.13 | -2.17 ± 0.15
CGCCAGCAAUAUUACGAAGA | -2.64 ± 0.36 | -2.2 ± 0.24
UUCUAGCAAUAUUACGGCGU | -1.72 ± 0.13 | -1.2 ± 0.14
GGGGAGCAAUAUUACGAAUU | -1.24 ± 0.19 | -0.992 ± 0.25
GAAGAGCAAUAUUACGACAA | – | -2.02 ± 0.38
GCACAGCAAUAUUACGUUCA | -0.911 ± 0.054 | -0.855 ± 0.062
CACGAGCAAUAUUACGCGCU | -4.22 ± 0.21 | -2.01 ± 0.19
AGCAAGCAAUAUUACGCAAU | -2.54 ± 0.15 | -1.41 ± 0.13
CUACAGCAAUAUUACGUAAG | -1.14 ± 0.068 | -0.424 ± 0.092
AACGAGCAAUAUUACGGAAC | -2.26 ± 0.23 | –
AAUAAGCAAUAUUACGUUUG | -3.16 ± 0.11 | -1.36 ± 0.1
GAGGAGCAAUAUUACGACCA | -2.57 ± 0.4 | –
GUUCAGCAAUAUUACGUAAU | 0.434 ± 0.088 | 0.484 ± 0.098
GAAGAGCAAUAUUACGUAAC | -1.31 ± 0.12 | -1.54 ± 0.21
UGGGAGCAAUAUUACGCUAG | -2.79 ± 0.32 | -1.99 ± 0.36
AGAUAGCAAUAUUACGCGCC | -0.504 ± 0.15 | -0.626 ± 0.27
AGCGAGCAAUAUUACGUUAG | -2.38 ± 0.11 | -3.18 ± 0.27
UAGUAGCAAUAUUACGCACU | -0.737 ± 0.11 | -0.331 ± 0.12
GAUCAGCAAUAUUACGUGUU | -1.75 ± 0.06 | -1.48 ± 0.09
AUCUAGCAAUAUUACGUCCG | -1.67 ± 0.2 | -1.42 ± 0.28
CCUGAGCAAUAUUACGCUCG | -2.14 ± 0.43 | -1.7 ± 0.41
CUACAGCAAUAUUACGACCG | 0.86 ± 0.11 | -0.315 ± 0.14
UAUCAGCAAUAUUACGAGUC | – | -1.81 ± 0.48
CGUCAGCAAUAUUACGGACU | -0.14 ± 0.09 | 0.0847 ± 0.089
CUGAAGCAAUAUUACGCACU | -4.4 ± 0.39 | -1.32 ± 0.18
UCUCAGCAAUAUUACGGGCC | -2.05 ± 0.2 | -1.37 ± 0.27
